According to the DeepSol protein solubility set:

Test: soluble on expression in E. coli; label from the status in PepcDB or PDB records

Sequence	soluble on expression in E. coli
MSTAAKQNRSTSRVSKKKTAAPKEGAAKKSDKGHKYEYVELAKASLTSAQPQHFYAVVIDATFPYKTNQERYICSLKIVDPTLYLKQQKGAGDASDYATLVLYAKRFEDLPIIHRAGDIIRVHRATLRLYNGQRQFNANVFYSSSWALFSTDKRSVTQEINNQDAVSDTTPFSFSSKHATIEKNEISILQNLRKWANQYFSSYSVISSDMYTALNKAQAQKGDFDVVAKILQVHELDEYTNELKLKDASGQVFYTLSLKLKFPHVRTGEVVRIRSATYDETSTQKKVLILSHYSNIITFIQSSKLAKELRAKIQDDHSVEVASLKKNVSLNAVVLTEVDKKHAALPSTSLQDLFHHADSDKELQAQDTFRTQFYVTKIEPSDVKEWVKGYDRKTKKSSSLKGASGKGDNIFQVQFLVKDASTQLNNNTYRVLLYTQDGLGANFFNVKADNLHKNADARKKLEDSAELLTKFNSYVDAVVERRNGFYLIKDTKLIY	soluble
MGSDKIHHHHHHMKTNIVDVFCIIDDFSKLFDETIKKKTLEEADKKCRNRKFKMSDSEVMTILILFHLSRYRDLKAFYLQYITHSCRSEFPHLVSYNRFVELQSRGGGKLIAFLNMCCLGQCTGISFIDSTPLKVCHIKRAHGHRTMRGWAQKGKSTMGWFYGFKLHIVINDRGEIINYQITPGNCDDREPLKDGTFTKNLFGKLIADRGYISQNLFDRLFVDDIHMITKIKKNMKNSLMHLYDKVLLRKRALIETVNDILKNLCRIEHTRHRSVNNFVTNLISGIIAYNILPKKPELNIEIIRNPNFPISA	not soluble
MSLSKTLLEIRLNSLIDLRMFYFISLYFRLENKESHKSQEIGNLIRVYNRSKREEAESEPLNLYVEDEKGNLLAGLIAETFGNWLEIEYLFVKEELRGQGIGSKLLQQAESEAKNRNCCFAFVNTYQFQAPDFYQKHGYKEVFSLQDYLYIRQRYYYQKNLEGHHHHHH	not soluble
GMDMKKHGLSIGINRIESVFFVTLKAIGTLTHEDYLVITPMLEGALSQVDQPKVSLFLDATELDGWDLRAAWDDLKLGLKHKSEFERVAILGNKDWQEWAAKIGSWFIAGEIKYFEDEDDALKWLRY	soluble
MGSDKIHHHHHHMVRPRIKLTEHLSTEEIEQSYRRCEDAQEKTRWLVIKLLNQQPQLSAQKVAEIVGFSGDWVRKIVRRYNKLGANGIINQQKLKPGGKKLALTNEQQQWLRQRLASPPEDGGLWSAPKVGELIRVQFGITLHVTTAWDYLKRLGFSLQQPRPLHTEAATFVQRQMFKTELTEFVRLLRFLHPHKSVEVWAEDEARLGLKPIVRRVWTPVGHRPNAVHRTRYQWLYTYGFVHPATGESFFLILPRVNIAVMQMALDAFAAEVNPHHHKIIVLLVDQAGWHTSKQLMLPAGIILFPLPAYTPQLQPTECVWSLLREAVANQMFSTLDELETVLISRCQWLMSHPQIVHGKVGFDWICQI	not soluble
MAIKLIAIDMDGTLLLPDHTISPAVKNAIAAARARGVNVVLTTGRPYAGVHNYLKELHMEQPGDYCITYNGALVQKAADGSTVAQTALSYDDYRFLEKLSREVGSHFHALDRTTLYTANRDISYYTVHESFVATIPLVFCEAEKMDPNTQFLKVMMIDEPAILDQAIARIPQEVKEKYTVLKSAPYFLEILDKRVNKGTGVKSLADVLGIKPEEIMAIGDQENDIAMIEYAGVGVAMDNAIPSVKEVANFVTKSNLEDGVAFAIEKYVLN	not soluble
MGSDKIHHHHHHMSRFFRHYQAFHAIIETGTVTGAAERLGVSQPAISNLLAQLERRTRLKLFERNRGRLLPTPEAMVLFDEIDTVIRGLGQVSQAVVDLQNQKAGQLQVATNHAMAFGFMPEQIARFAADKPNLTVAFQSQYSAKIQDWVMAGLFEIGICEQPVRTDGLDWVPFFFEIQCAVPADSPLARHEELTPILLDDVPFIVMGADHMVTRRAREAFHREGANLRIRCQTDLFRNALNLVKQGLGVTLVDPFTLSSDDRSGYVLRRFAPRILLDVIIVTARGRPISAIGAQFLEQVSASMTTLATAAPDPAEP	not soluble
MIYPYNSTISLGTVSLNVTDLAKMTTFYTSIIGLQVLSQDTTSRQLTTDGKTVILELRQTPLPGDKAYGLYHTAFLVPDRHSLGLVLNHFLTRSISLEGAADHGHSEAIYLSDPEGNGIEIYHDKAVEHWDIRDNGQIIGVTEPTDTKSILEQLTDIPKHFLLAQDTRIRHVHLSVKNALASSLLYQKVFDLGDKMTIPSASWIASGNYYHHLAFNHWSAPYLKKHQEGAPGLAFLTIHIETPLLFSATLKKARLHGLAILQEDSSSFTTEDEEGIRVNVILGQD	not soluble
MGSDKIHHHHHHMEPQWDDMKVFLAVARESSLSGAGRVLKMDPATVGRRVARFEAALKTSLFVKSPQGYALSAAGDRLLGHAEAAELAMRAGEEALTGPSDTLSGQIRIGAPDGCANYILPQVCAAISKDNPDLDIQVVALPRVINLSRREADMAVTVSAPTAGKLLVQKITDYHLHLAATRHYLRDNHPIEKLEHLRDHRMIGYIPDMIFDRELDYLNDLGIERVSLASNSVSVQIKMLAEGSALGVVHDFSLPSHRTLRKVLKEEFSLTRSFYLVRHQGDQRSDRLNRFAEALSAGIRAEVERLEGLT	not soluble
MGSDKIHHHHHHMYSIVEGDRVLEIGFMEHFMFLDFPTLVDIPIGLPKKGERECDRLTRRILSKRAASVFTVPCRVAVYRESYEDALRVNRECQGKGFPVQFWHIVEKVREVDVFLRSYPDLSDQIRESHPELCFLRISSKMMKSKHTREGLNQRIEILREHLVFDVENLQRICREYRIHIHDVLDSLVLALAQQFPLERIPEDPPLDEHGLPMQIIAPARTQRSPNPE	not soluble
MGSDKIHHHHHHMRVNMYLSRQIQPLVSRLLKQFPAVLVTGARQVGKSTLLKHIAKDYAYLTFDDPLLLEQAKQEPRLFFLNHAGNVILDEVQYAQELFSLLKLEIDKQQKNGMFLLSGSQAFELMQNVSETLAGRIAILKLQGLSLREILNVEFYLPFIPSRDYLASREKMLKSPENIWQIIHKGDMPRLYQQETDWEIYYSSYVSTYIERDVRQLTNITNTTDFTRFMVALASRSGELLNYSNVAQEVGVSNETIKRWTAILQTSGIIYLLQPYSNNHLKRTIKTPKIYFLNTGLMAYLTKWLTPETISKGAKSGQFFESFVVSEIIKSFTNNGIEPPLYFYRNTNQKEIDLIIEYDRTIYPIEIKTTANPNKKMAKSFALLNSLGKESTIGLGVIINQYPNKHYLAENLVALPVRYL	not soluble
MVNNSKTILITGCSHGGIGYATAVHLKNLGHRVFASARQQKDVEALSQEGFETYLIDVTNYEYIDNALADILNKTGGSLDVIFNNAGYGQAGALEDIDTKFLKQQFETNVFGLHNLTYKALKIMRKQGYGKIIQHSSVLGLVAMKYRGAYNASKYAIEGLTDTMRLELRDSNIFITSLNTGPITSKFRENSIKTITNVNYDSSVHKQQYEKILARQHKKVPFNEPAISVAKVVEKIINCDKPKPRYYITKATWIMASLKRILPTNILDNFLNRY	not soluble
MRINKPFSDDSNTVVFVSSKTYGVKEEAAHNPNVEFGVVLPTDFPAFNRALVQFLKRKKTKLNINLDSLIELYKKNENSGCFHTAIKTVITSVTFCETTPFTMKTKPEKNVEVAVQCAVEYHNLVKEYET	not soluble
MSLKQKILIVEDSLTIRRMLIQAIAQQTGLEIDAFDTLEGARHCRGEEYVVALVDLTLPDAPSGEAVKVLLERGLPVVILTADISEEKRAAWLEAGVLDYVMKDSRHSLQYAVSLVHRLYLNQRIEVLVVDDSRTSRHRTMAQLRKQLLQVHEASHAREALAQLEQNPAIRLVLVDYYMPEIDGISLVRMLRERYSKQQLAIIGISVSDKRGLSARYLKQGANDFLNQPFEPEELQCRVSHNLEALEQFNSIQESANRDYLTGLYNRRYWFNEGQKWFEEHQRQETPLALCVLDVDHFKQVNDHWGHAIGDQLLCHLTRLLTQFFPDAMIARFGGEEFALMVPHCTVPVLLKRLEGLRQQMRQQPLSRETPLFVRASFGVIKVGRGSMDEALSEADRLLYQAKNTGRDKIVSQDSSEGHHHHHH	soluble
MYRQALASGEKIFAVAPMIDWTDTRCRFLHRQLSKRALLFTEMIVADAIIHGQREKLLGYHPQEHPVALQLGGSNPAKLAEAVRIAGDYGYDEINLNVGCPSDRVQSGTFGACLMREPEVVAQCISAMKAVAAVPVTVKCRIGVDDQEPETVLPDFLARVVAAGADAVWVHARKAWLQGLSPKENREVPPLDYDLVYRMKRDNPDVFIGINGGIADLDQAGEHLKYVDGVMLGRAAYHNTSILADVDHRIHGEEALQYDWMALRDTMMAYAADYIATGGRLNHVTRHMVGLFQGMPGARRFRQILSSDATRPGAGPEVIEAAFAAIDFNPMKELAG	not soluble
MSGLQGKIADAVKARGYQIMTSPDKAYYWIQANVLKADKMDLRESQGWLSRGYEGAAVGAALGGGITAYNTGSAGTTLGVGLATGLIGMAADAMVEDINYTMITDVQIAERTRTSVRTDNVAALRQGTSGSKIQTSTETGNQHKYQTRVVSSANQVNLKFEEAKPHLEDQLAKSIANIL	not soluble
MGRQAFEFGLRPKDQFKVMQHFDLNTNHLEVLNRLYTPLIGTQAVGLYHFMTQFVKDSHNETLILSHYIFMNELKINLLEFRQQMDLLEAIGLLKAFVKHDEQETQFVYQLIQPPSAHLFFNDPMLSIFLYSEVEHRRFHELKKYFEYQQIDLSEFKQVTRQFTDVFKVPSTKIDIDTSDIPINEPYQGIDLSNESFDFEMLRQMLGKHFISQDIVTKDAKRLITQLATLYGLTADGMKHVILNSITSGQQLSFEEMRKQARSYYLMEHENQMPKLQVKSPATSSSTGKSSEVNPKPQSDEWFELLEQTSPIDMLASWSESEPTISQKTMVEELIEREKMSFGVINILLQFVMLKEDMKLPKAYILEIASNWKKKGIKTAKEAYNYAKKVNQPKNEGSSGNYQKRGSYYGQRNRISKEKTPKWLENRDKPSEEDSAKDNSVDDQQLEQDRQAFLDKLSKKWEEDSR	not soluble
MAAKRLAVLCIFLLPNTQFRQLRLAETAEELPQLLREAEKASWTYLEFLESITRYELAKREAKSLEKRMKWARFPFVKSLDEFELRGQNVLTARQLSQLRELSWLEQQYNLILLGPPGIGKTYIAIGLGLEAVYRGFHVYFATMGELVQLLKSEEYLNKSKVQLKRIRNADLVIIDDLMYMAMDQREANLFFHLINHLYERSSIILTSNKSPEEWGHLIGDQGITTAILDRLLHRVEVIHGGENEESHRMKNRKSIFSAEVLEHHHHHH	not soluble
MIENAKENSQRVELKDRIIETASEAFTTHGIKSITMDDIAASLGISKRTLYEVFQDKESLLTQCILKRQEEMNAFLAETLANSKNVLEVILVCYQRSIETFHRTNKRFFEDIKKYPKVHSLLKNYRERDSDSTIEFFKMGIKQGIFRDDVNFAIVNLLVHEQLDLLMNTDICNKYSFLEVYEAIMFTYIRGISTEKGAKVLEDFITEYRKQRIH	not soluble
MNNLLRCHQVCKTYQEGELQTQVLKGVSFELKRGELVSIIGSSGSGKSTLLHILGALDDASEGQVEFLGQSLHQLSSNKQAKIRNQHLGFVYQFHHLLADFSALENVAMPLLIGGMNVAKAKAKAQSLLERVGLGHRVAHRPSELSGGERQRVAIARALVNKPDLVLADEPTGNLDHKTALSIYDLMRELNRESGTAFLVVTHDGELAAKMDRHMHMKDGLLTDITGA	not soluble
MRHSFFCIDSHTCGNPVRLVAGGGPLLPHLPISERRDLFVRNHDWVRQALMFEPRGHDIMSGAVIYPAYRDDCDFAVIFIEVSGCLPMCGAGTIGLVTAAIEEGLVTPRIPGRLSIETPAGKVDIQYDKPGEFVESVRIFNVASYLHAADVEVNVPGLGKLVVDIAYGGNYYAVIEPQVGWPGLDGMTAGDVVDLSQKLRDALGTICDPVHPDDERIRGVHHAIWCDRPVSAEADGRGAVFYGDKAIDRSPGGTGTSARMAQLHGKGRLKAGETFRQESLIGTIFEGKVEEETTVGSFSGIRPSIGGWARIIGHNTIFVDDRDPLAHGFQVRLEHHHHHH	not soluble
